The target in one test is N501Y (SARS-CoV-2). Put plainly: kinetic measurement, method not stated; table row N501Y.
For the next test, the target named is N439K (SARS-CoV-2). Briefly: kinetic measurement, method not stated; table row N439K.
A further test deals with E484K (SARS-CoV-2). Put plainly: kinetic measurement, method not stated; table row E484K.
Another test deals with F490L (SARS-CoV-2). Put plainly: kinetic measurement, method not stated; table row F490L.
The target in the next test is K417N (SARS-CoV-2). Put plainly: kinetic measurement, method not stated; table row K417N.
The target of the next test is A475V (SARS-CoV-2). Briefly: kinetic measurement, method not stated; table row A475V.
In the next test the target is B.1.351 (Gamma). Put plainly: kinetic measurement, method not stated; table row B.1.351 (Gamma).
The target in the next test is L452R (SARS-CoV-2). Put plainly: kinetic measurement, method not stated; table row L452R.

Here are results for 1 substance from US20230235027A1.

Chain of NIH-CoVnb-112 (VHH) (VHH): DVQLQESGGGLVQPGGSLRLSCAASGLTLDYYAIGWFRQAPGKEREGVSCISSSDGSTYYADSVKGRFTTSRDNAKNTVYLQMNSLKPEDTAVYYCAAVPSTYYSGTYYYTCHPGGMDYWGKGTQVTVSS

A word on the koff: it is the first-order rate constant of dissociation. Low readings indicate a long-lived complex, high ones a short-lived complex. The term kon denotes the second-order rate constant of association. Read a high kon as fast association. In the case of NIH-CoVnb-112 (VHH), the koff is 0.000428 s⁻¹ in the test with N501Y (SARS-CoV-2); 0.000302 s⁻¹ with N439K (SARS-CoV-2); 0.000304 s⁻¹ with E484K (SARS-CoV-2); 0.000926 s⁻¹ with F490L (SARS-CoV-2); 0.000157 s⁻¹ with K417N (SARS-CoV-2); 0.000209 s⁻¹ with A475V (SARS-CoV-2). The koff with B.1.351 (Gamma) turned out to be 0.000705 s⁻¹; in the test with L452R (SARS-CoV-2), 0.00127 s⁻¹. The kon was found to be 153000 M⁻¹ s⁻¹ with N501Y (SARS-CoV-2); 189000 M⁻¹ s⁻¹ with N439K (SARS-CoV-2); 256000 M⁻¹ s⁻¹ with E484K (SARS-CoV-2); 158000 M⁻¹ s⁻¹ with F490L (SARS-CoV-2); 120000 M⁻¹ s⁻¹ with K417N (SARS-CoV-2); 169000 M⁻¹ s⁻¹ with A475V (SARS-CoV-2). For the same substance, the kon turned out to be 201000 M⁻¹ s⁻¹ with B.1.351 (Gamma) and 209000 M⁻¹ s⁻¹ with L452R (SARS-CoV-2).
